The source of these data is patent US20030148484A1 (published 2003).

The target in the experiment is T1, Streptavidin (streptavidin column) (UniProt P22629 37-163, limits assumed).
T1 construct: Immobilised on column matrix
The experiment can be described thus: affinity column (streptavidin column without kappa).

T1 sequence (P22629 37-163 limits assumed): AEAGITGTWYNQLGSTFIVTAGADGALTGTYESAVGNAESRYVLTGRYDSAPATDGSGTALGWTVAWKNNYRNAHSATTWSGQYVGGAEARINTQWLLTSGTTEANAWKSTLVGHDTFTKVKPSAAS

B1: LHL (growth factor comprising H flanked by two L molecules) (designed binder)
chain: MKKTAIAIAVALAGFATVAQAAPKDNTEEVTIKANLIFANGSTQTAEFKGTFEKATSEAYAYADTLKKDNGEYTVDVADKGYTLNIKFAGKEATNRNTDGSTDYGILQINSRWGGLTLKEEVTIKANLIFANGSTQTAEFKGTFEKATSEAYAYADTLKKDNGEYTVDVADKGYTLNIKFAG
notes: also called LIIL [sic]
In the case of B1, the binding result is “no binding”.
